Consider 80 sequences from the supplement of paper PMC10724198.

± gives the standard deviation of the averaged measurements.
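Note: PSI is a weighted mean of sequencing reads over stability bins, variants kept only with over 10 reads, mCherry proximal and sfGFP distal, peptide attached via GGGS linker.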

The data set has as its system Saccharomyces cerevisiae. The data set is described as follows: protein stability index of tFT-peptide fusion (C-terminal peptide) (PSI (0-1 scale)); higher = more stable (slower turnover). Particulars: genetic background: wild type; temperature: 30 C.
The sequence SRTWGDVVSSGT registered a protein stability index of 0.715 ± 0.0099.
SRVCPLLAPSLL displayed a protein stability index of 0.671 ± 0.067.
In turn, SRVKMKGTIRER gave a protein stability index of 0.701 ± 0.021.
In the case of SRVYRSCKNVKR, the protein stability index worked out at 0.7383 ± 0.0069.
Regarding SRWDPLYVPWRM, the protein stability index was found to be 0.696 ± 0.014.
For SRYYMDRGTLLE, the protein stability index is 0.625 ± 0.018.
Take SSASPVPVLPLT: the protein stability index came out at 0.7 ± 0.018.
Sequence SSCAWGGGLEVG came in with a protein stability index of 0.683 ± 0.053.
SSCGTITYLTPY showed a protein stability index of 0.745 ± 0.015.
Turning to SSCSDLTKRLQQ, the protein stability index is 0.669 ± 0.054.
Regarding SSDSVPIVVGVV, the protein stability index turned out to be 0.66 ± 0.056.
SSEGTRTLIPPD yielded a protein stability index of 0.7 ± 0.011.
As to SSFLSLYSIPLP, the protein stability index came out at 0.734 ± 0.044.
In turn, SSGLMGFLFPMQ had a protein stability index of 0.721 ± 0.017.
Sequence SSHSFFLFRISL yielded a protein stability index of 0.608 ± 0.061.
As to SSKLFVVLPVSR, the protein stability index came out at 0.599 ± 0.028.
In turn, SSLPASPAPPHL had a protein stability index of 0.702 ± 0.066.
On to SSLPPSDQPPSP, for which the protein stability index worked out at 0.733 ± 0.071.
SSLWVGFLGCVG: the protein stability index turned out to be 0.646 ± 0.008.
For SSNLVDTCSPIG, the protein stability index was 0.778 ± 0.081.
SSPARASLTRPA displayed a protein stability index of 0.674 ± 0.038.
On to SSPESPPTPRSL, for which the protein stability index came to 0.678 ± 0.064.
In the case of SSPHQVLTTRAP, the protein stability index is 0.705 ± 0.13.
On to SSPIIAGFPQQK, for which the protein stability index came out at 0.676 ± 0.016.
With SSPLPPPPFAPL, the protein stability index came to 0.702 ± 0.022.
For SSPPPPPRPAPT the value was 0.681 ± 0.15.
On to SSPPPRSLPSPP, for which the protein stability index came out at 0.714 ± 0.046.
On to SSPPWPILHSPP, for which the protein stability index came out at 0.6952 ± 0.0014.
As for SSPQASILIRDF, the protein stability index turned out to be 0.778 ± 0.1.
Regarding SSPSPASSPPPP, the protein stability index was 0.677 ± 0.057.
On to SSPVPLPPNPPA, for which the protein stability index was determined as 0.696 ± 0.038.
The sequence SSRALFLPSFLP gave a protein stability index of 0.731 ± 0.04.
In turn, SSSAPSSVPPLG registered a protein stability index of 0.734 ± 0.016.
SSSCRCSRVIGR gave a protein stability index of 0.589 ± 0.064.
Turning to SSSLHPRPSPPL, the protein stability index was found to be 0.692 ± 0.043.
For the sequence SSSLPPPPHAFP, the protein stability index was found to be 0.672 ± 0.036.
In the case of SSSRLLALSSLH, the protein stability index worked out at 0.694 ± 0.053.
For SSSSSSALSGFE the value was 0.704 ± 0.051; for SSSVPFRRYTHD, 0.711 ± 0.017; for SSSVSARAVSLP, 0.6958 ± 0.0033.
For SSTERLELERMS the value was 0.705 ± 0.021; for SSYFCESWMFDL, 0.756 ± 0.023.
For SSYHPPPSCLLP the value was 0.74596 ± 0.00061; for STAPQDPARPSE, 0.707 ± 0.028.
In turn, STCFPSIVRLGP returned a protein stability index of 0.612 ± 0.05.
STDNNLISEPKT: the protein stability index was found to be 0.731 ± 0.097.
Sequence STDQFFLFFCVG gave a protein stability index of 0.735 ± 0.2.
The sequence STFYSALRVGTR showed a protein stability index of 0.668 ± 0.019.
The sequence STGAVREFRFFA displayed a protein stability index of 0.643 ± 0.053.
For STGLDPAAGAHL the value was 0.657 ± 0.06; for STGTASAHRVQI, 0.66 ± 0.011.
In the case of STHSRLCATVPP, the protein stability index amounted to 0.591 ± 0.027.
The sequence STPLRNLEITIA had a protein stability index of 0.679 ± 0.15.
Sequence STPPPPALPEYQ showed a protein stability index of 0.698 ± 0.023.
For STPSPQPYIAPT, the protein stability index amounted to 0.735 ± 0.06.
In turn, STSACPTPRTCS registered a protein stability index of 0.6192 ± 0.001.
For STSHSFGVLIAS, the protein stability index turned out to be 0.662 ± 0.0094.
In turn, STSIRHGLHSVE showed a protein stability index of 0.673 ± 0.05.
Turning to STVRFGAPDYVH, the protein stability index is 0.6774 ± 0.0026.
SVAPRLFSPSHP came in with a protein stability index of 0.6548 ± 0.0055.
SVDMYTNNYKIH: the protein stability index was found to be 0.549 ± 0.038.
Regarding SVESEWHLLLTP, the protein stability index amounted to 0.744 ± 0.013.
Regarding SVFECKYNTLGR, the protein stability index was 0.671 ± 0.017.
SVFPSAVCSLGC had a protein stability index of 0.6895 ± 0.005.
The sequence SVGGSLFLGRRG yielded a protein stability index of 0.68 ± 0.072.
SVLPSLRPGSGL came in with a protein stability index of 0.707 ± 0.016.
Sequence SVLPSVAGIKSG had a protein stability index of 0.593 ± 0.046.
Sequence SVLTSYFFYLPP yielded a protein stability index of 0.6869 ± 0.0046.
In turn, SVPHRLLSVPPV registered a protein stability index of 0.6816 ± 0.0014.
On to SVPPRPLALSLL, for which the protein stability index was found to be 0.76 ± 0.026.
For SVPSLPLSFPPF the value was 0.787 ± 0.032.
SVRGWMILCTGM gave a protein stability index of 0.562 ± 0.049.
SVSPPLPPSSIA: the protein stability index is 0.673 ± 0.021.
In the case of SVSPPLSFPPSR, the protein stability index is 0.706 ± 0.022.
SVTLSVSCPMLR displayed a protein stability index of 0.708 ± 0.024.
SVVRKDNKLHTV showed a protein stability index of 0.596 ± 0.035.
For SVWSSIMSVSFL the value was 0.6179 ± 0.00082.
SVYLPLGVLQCI: the protein stability index was 0.577 ± 0.032.
As to SWGCSMAKVWVR, the protein stability index came out at 0.585 ± 0.038.
For SWGEVRRRGCSV the value was 0.637 ± 0.0065.
